The text below walks through data of PMC11640050.

The experiment addresses Rictor (R28 cells). In words: co-IP (Rictor IP) with DSP crosslinker, western blot band quantification. As to conditions: TNF+HG treatment. In general terms: A western blot detects proteins with antibodies after separation by electrophoresis.
For “3X-FLAG-tagged wild-type HSPB4 (αA-crystallin) (from UniProt P02489) T148D”, the ratio to parent is 0.11.
On to “3X-FLAG-tagged wild-type HSPB4 (αA-crystallin) (from UniProt P02489) R21A”, for which the ratio to parent was found to be 0.35.
On to “3X-FLAG-tagged wild-type HSPB4 (αA-crystallin) (from UniProt P02489) T148A”, for which the ratio to parent was 0.75.
The value for “3X-FLAG-tagged wild-type HSPB4 (αA-crystallin) (from UniProt P02489) R49A” was 0.26.
